According to the nanobody polyreactivity screen of Harvey et al. (2022):

Assay: yeast display, Sf9 membrane polyspecificity reagent, FACS + sequencing; frameworks hold sequencing errors
How it was run: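 A synthetic nanobody library was expressed on Saccharomyces cerevisiae BJ5465 by galactose induction for 36–48 hours. The library was stained for 1 hour at 4 °C with 10% biotinylated, detergent-solubilized Sf9 membrane reagent and enriched with streptavidin microbeads before FACS. Low and high (top ~1%) gates were set on anti-HA fluorescence for expression and streptavidin fluorescence for reagent binding, and each polyreactivity label reflects the gate of origin.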

Row | Sequence | polyreactivity (PSR sort gate)
1 | QVQLVESGGGLVQAGGSLRLSCAASGFIFWDYAMGWYRQAPGKEREFVATISLSVGSTYYADSVKGRFTISRDNAKNTVYLQMNSLKPEDTAVYYCAAVTWGEGFDYWGQGTQVTVSS | low polyreactivity
2 | QVQLVESGGGLVQAGGSLRLSCAASGFIFWLNAMGWYRQAPGKERELVAASSIGGRTNYADSVKGRFTISRDNAKNTVYLQMNSLKPDDTAVYYCNKDYRSVYKGRGFDYCGQGTQVTVSS | low polyreactivity
3 | QVQLVESGGGLVQAGGSLRLSCAASGFIFWPNAMGWYRQPPGKERELVAAISYSGGSTYYADSVKGRFTISRDNAKNTVYLQMNSLKPEDTAVYYCAKLPYRRVDYGYWGQGTQVTVSS | high polyreactivity
4 | QVQLVESGGGLVQAGGSLRLSCAASGFIFWQYAMGWYRQAPGKERELVAAITSRGGSTYYADSVKGRFTISRDNAKNTVYLKMNSLKPEDTAVYYCARLYPRHLNGDYWGQGTQVTVSS | high polyreactivity
5 | QVQLVESGGGLVQAGGSLRLSCAASGFIFWQYTLGWYRQAPGKERELVAAINGGSSTYYADSVKGRFTISRDNAKNTVYVQKNSRKPEDTAVYYCAADRYLYHDRYEYDYWGQGTQVTVSS | high polyreactivity
6 | QVQLVESGGGLVQAGGSLRLSCAASGFIFWRNAMGWYSQAPGQERELVAAITSGDRTNYADSVKGRFTISRDNAKNTVYLQMNSLKPEDTAVYYCNARRYRLVSYDYWGQGTQVTVSS | low polyreactivity
7 | QVQLVESGGGLVQAGGSLRLSCAASGFIFWRNTMGWYRQAPGKERELVAVITRGGSTYYADSVKGRFTISRDNAKNTVYLQMNSLKPEDTAVYYCAARNDYYKTFSGYDYWGQGTQVTVSS | low polyreactivity
8 | QVQLVESGGGLVQAGGSLRLSCAASGFIFWSYAMGWYRQAPGKERELVAAIDLTGGSTYYADSVKGRFTISRDNAKNTVYLQMNSLKPEDTAVYYCNADGDTYAFTNSDSGFDYWGQGTQVSVSS | low polyreactivity
9 | QVQLVESGGGLVQAGGSLRLSCAASGFIFWTYAMGWYRQAPGKERELVARISWSGGSTYYADSVKGRFTISRDNAKNTVYLQMNSLKPEDTAVYYCARLATLYESIEYDYWGQGTQVTVSS | low polyreactivity
10 | QVQLVESGGGLVQAGGSLRLSCAASGFIFWYNAMGWYRQAPGKERELVASISGSGGSTYYADSVKGRFTISRDNAKNTVYLQMNSLKPEDTAVYYCAVYFFSFWGQGTQVTVSS | low polyreactivity
11 | QVQLVESGGGLVQAGGSLRLSCAASGFIFWYYAMGWSRQAPGKERELVAAISYGGGSTYYADSVKGRFTISRDNAKNTVYLQMNSLKPEDTAVYYCAAAPRWKASRLYYWGQGTQVTVSS | high polyreactivity
12 | QVQLVESGGGLVQAGGSLRLSCAASGFIFWYYAMGWYRHAPGKERELVAVISSGSSTHYADSVKGRFTISRDNAKNTVYLQMNSLKPEDTAVDYCAARIRTRYFTGYYYWGQGTQVSVSS | high polyreactivity
13 | QVQLVESGGGLVQAGGSLRLSCAASGFIFWYYAMGWYRQAPGKERELVAAINSSGGSTYYADSVKGRFTISRDNAKNTVSLQMNSLKPEDTAVYYCAARAYQRGNYWGQGTQVTVSS | high polyreactivity
14 | QVQLVESGGGLVQAGGSLRLSCAASGFIFYAYVMGWYRQAPGKERELVAAISRNGGSTYYADSVKGRFTISRDNAKNTVYLQMKSLKPEDTAVYYCAALSYYRYSQEDDYWGQGTQVTVSS | high polyreactivity
15 | QVQLVESGGGLVQAGGSLRLSCAASGFIFYDYAMGWYRQAPGKERELVAAISSGGSTNYADSVKGRFTISRDNAKNTVYLQMNSLIPEDTEVYYCAADDRSYATWKRDYDYWGQGTQVTVSS | low polyreactivity
16 | QVQLVESGGGLVQAGGSLRLSCAASGFIFYDYAMGWYRQAPGKERELVAAITVDGGTTYYADSVKGRFTISRDNAKNTVYLQMNSLKPEDTAVYYCAADTYYGFDSNYEYCGQGTQVTVSS | low polyreactivity
17 | QVQLVESGGGLVQAGGSLRLSCAASGFIFYDYAMGWYRQATGKERELVAGITDSGGSTSYADSVKGRFTISRDNAKNTDYLQMNSLKPEDTAVYYCAADNYVRAGINYDYWGQGTQVTVSS | low polyreactivity
18 | QVQLVESGGGLVQAGGSLRLSCAASGFIFYEYAMGWYRQATGKERELVAAITYSAGSTYYADSVKGRFTISRDNAKNTVYLQMNSLKPEDTAVYFCAKVDSEYRQVIQQEDDYWGQGTQVTVSS | low polyreactivity
19 | QVQLVESGGGLVQAGGSLRLSCAASGFIFYFYAMGWYRQATGKEMELVAAISDGVSTYYADSVKGRFTISRDNAKNTVYLQMNCLKPEDTAVYYCAVSRGDDPEFDYWGQGTQVTVSS | low polyreactivity
20 | QVQLVESGGGLVQAGGSLRLSCAASGFIFYGNAMAWSRQAPGKEREFVAAINGRGVSTYYADSVKGRFTISRDNAKNSDYLQMNSLKPEDTAVYYCNKVYWGRGPLEYWGQGTQVTVSS | high polyreactivity
21 | QVQLVESGGGLVQAGGSLRLSCAASGFIFYGNTMGWYRQAPGKERELVAAISGSTGGTYYADSVKGRFTISRDNAKNTVYLQMNSLKPEDTAVYYCAAVVPWYASYSRYYYWGQGTQVTVSS | high polyreactivity
22 | QVQLVESGGGLVQAGGSLRLSCAASGFIFYGNTMGWYRQAPGKERELVAAISWSGGTTYYADSVKGRFTISRDNAKNTVYLQMNSLKPEDTAVYYCNRAAFRYRYDYWGQGTQVTVSS | high polyreactivity

Row | Sequence | polyreactivity (PSR sort gate)
23 | QVQLVESGGGLVQAGGSLRLSCAASGFIFYHYAMGWYRQAPGKERELVAAISWSGGSTYYADSVKGRFTISRDNAKNTVYLQMNSLKPEDTAVYYCAAANTNRFPYGYWGQGTQVTVSS | high polyreactivity
24 | QVQLVESGGGLVQAGGSLRLSCAASGFIFYINAMVWYRQAPGKERELVAAITNVGSTNYADSVKGRFTISRDNAKNTVYLQMNSLKPEDTAVYYCAAEKGLVALVYKYDYWGQGTQVTVSS | low polyreactivity
25 | QVQLVESGGGLVQAGGSLRLSCAASGFIFYKNAKGWYRQAPGKERELVAAISQIGGTTYYADSVKGRFTISRDNAKNTVYVQMNSLKPEDTAVYYCAASRRVQSDYWGQGTQVTVSS | high polyreactivity
26 | QVQLVESGGGLVQAGGSLRLSCAASGFIFYKYAKGWYRQAPGKEREFVAAITWSGGNTYYADSVKGRFTISRDNAKNTVYLQMNSLKPEDTAVYYCAARDSKWGQGTQVTVSS | low polyreactivity
27 | QVQLVESGGGLVQAGGSLRLSCAASGFIFYLNVMGWYRQAPGKERELVATITSGGSTNYADSVKGRFTISRDNAKNTVYLQMNSLKPEDTAVYYCAARRGKSYYWYNYWGQGTQVTVSS | high polyreactivity
28 | QVQLVESGGGLVQAGGSLRLSCAASGFIFYQYAMGWYRQAPGKERELVAAISKSGGNTYYADSVKGRFTISRDNAKNTVYLQMNSLKPEDTAVYYCAADRGQRGMYYWGQGSQVTVSS | high polyreactivity
29 | QVQLVESGGGLVQAGGSLRLSCAASGFIFYQYAMGWYRQAPGKERELVATISFRGGRTYYADSVKGRFTISRDNAKNTVYLQMNSLKPEDTAVYYCNAKRVSSRFYKWDYYWGQGTQVTVSS | high polyreactivity
30 | QVQLVESGGGLVQAGGSLRLSCAASGFIFYQYAMGWYRQAPGKERELVAVISRTGSTSYADSVKGRFTISRDNAKNTVYLQMNSLKPEDTAVYYCAARYYFYDYWGQGSQVTVSS | high polyreactivity
31 | QVQLVESGGGLVQAGGSLRLSCAASGFIFYRNAMGWYRPAPGKERELVAAINRGGSTYYADSVKGRFTISRDNAKNTVYLQMNSLKPEDTAVYYCAAYHLRPSRYDYWGQGTQVTVSS | high polyreactivity
32 | QVQLVESGGGLVQAGGSLRLSCAASGFIFYRNTMGWYRQAPGKERELVAAISVSGGSTNYADSVKGRFTISRDNAKNTVYLQMNSLKPEDTAVYYCAARVRDSLVYGGWDDYWGQGTQVTVSS | high polyreactivity
33 | QVQLVESGGGLVQAGGSLRLSCAASGFIFYRYALGWYRQAPGKERELVAAISRSGGSTYYADSVKVRFTISRDNAKNTVYLQMNSLKPEDTAVYYCAVTGYWYYHDHYSYPSRYYYWGQGTQVTVSS | high polyreactivity
34 | QVQLVESGGGLVQAGGSLRLSCAASGFIFYRYAMGWYRQAPGKERELVAAISGSGGRTYYADSVKGRFTISRDNAKNTVYLQMNSLKPEDTAVYYCAADKQAYVTDDYWGKGTQVTVSS | high polyreactivity
35 | QVQLVESGGGLVQAGGSLRLSCAASGFIFYRYAMGWYRQAPGNERELVAAISSGGSTYYADSVKGRFTISRDNAKNTVYLQMNSLKPEDTAVYYCNAYHNYWRYRTDEMNYWGQGTQVTVSS | high polyreactivity
36 | QVQLVESGGGLVQAGGSLRLSCAASGFIFYRYARGWYRQAPGQERELVAAITTSGARTYYADSVKGRFTISRDNAKNTVYLLMNSLKPEDTAGYSCAASPTPRVKMDYWGQGTQVTVSS | low polyreactivity
37 | QVQLVESGGGLVQAGGSLRLSCAASGFIFYSNAMGWYRQAPGKERELVAAISRRGGSTYYADSVKGRFTISRDNAKNTVYLQMNSLKPEDTAVYYCAARVVSGFDSWGQGTQVTVSS | high polyreactivity
38 | QVQLVESGGGLVQAGGSLRLSCAASGFIFYSNAMGWYRQAPGKERELVATITGDGGTTYYADSVKGRFTISRDNAKNTVYLQMNSLKPEDTAVYYCAKDYIYRGYYTDFRYEDYDYWGQGTQVTVSS | low polyreactivity
39 | QVQLVESGGGLVQAGGSLRLSCAASGFIFYSYAMGWYRQAPGKERELVAAIDWDDGTTYYADSVKGRFTISRDNAKNTVYLQMNSLKPEDTAVYYCAAESYYGAYDYWGQGTQVTVSS | high polyreactivity
40 | QVQLVESGGGLVQAGGSLRLSCAASGFIFYSYAMGWYRQAPGKERELVAAISTSGGSTYYADSVKGRFTISRDNAKNTVYLQMNSLKPEDTAVYYCNARGTRASRYDYWGQGTQVTVSS | high polyreactivity
41 | QVQLVESGGGLVQAGGSLRLSCAASGFIFYSYAMGWYRQAPGKERELVAAISWSGGRTYYADSVKGRFTISRDNAKNTVYLQMNSLKPEDTAVYYCNADDYSFSFTVPYYIEYDYWGQGTQVTVSS | high polyreactivity
42 | QVQLVESGGGLVQAGGSLRLSCAASGFIFYSYGMGWYRQAPGKERELVASITSSGTRTYYADSVKGRFTISRDNAKHTVYLQMNSLKPEDTAVYYCAASRFYYGIAYYRYDYWGQGTHVTVSS | high polyreactivity
43 | QVQLVESGGGLVQAGGSLRLSCAASGFIFYTKAMGWSRQAPGKERELVATITTSGGRTYYADSVKGRFTISRDNAKNYVYLQMYSMKPEDTAFYYSATRYVVIEYDYWGQGTQVTVSS | low polyreactivity
